Laboratory results reported in patent US20180044434A1.
Positions count from the first letter of the chain named. Values belong to the binder of their own block, whether it stands above or below them.

Key:
[1] = biological target: T1, Ala mutant of TA0096, SEQ ID NO: 32; assay: ELISA, coated peptide
T1 sequence (peptide): EENMDAQWMQDEMEIGY

[2] = biological target: T2, Ala mutant having 3-amino acid substitution, SEQ ID NO: 46; assay: ELISA, coated peptide
T2 sequence (peptide): EENMDDAAAQDEMEIGY

- OD 490/630 nm [1]: 0.628
B1: A11 (antibody, V domains shown)
VH: AVTLDESGGGLQTPGGALSLVCKASGFDFSSYGMGWMRQAPGKGLEYVAAIRNDGSWTGYGAAVKGHATISRDNGQSTVRLQLNNLRAEDTGTYYCAKTTGSRGGSIDAWGHGTEVIVS
VL: ASTQPSSVSANLGGTVEITCSGGGRYYYGWYQQKSPGSAPVTVIYANDKRPSDIPSRFSGSKSGSTGTLTITGVQAEDEAVYFCGSAETSSYVFGAGTTLTVL

- OD 490/630 nm [2]: 0.178
B2: G8 (antibody, V domains shown)
VH: B1 VH with D28T, S31T, G33A, H67R, S71L, N84S, T99Y, R103S, D108G
VL: ASTQPSSVSANLGGTVEITCSGGNRNYYYGWYQQKSPGSAPVTLIYANDKRPSNIPSRFSGSKSGSTGTLTITGVQAEDEAVYFCGTADTGKYVFGAGTTLTVL

- OD 490/630 nm [1]: 0.177
B3: E9 (antibody, V domains shown)
VH: B1 VH with A17T, A24G, D28T, A62S, H67R, G92A, T100S, R103S, I107V
VL: B1 VL
